Test results: patent US20190359711A1

Assays:
[1] = biological target: CD3 on human pan T cells (human) (UniProt P07766); test: Kd derived from the competition IC50: Kd=IC50/(1+([T]/KdT)); human pan T cells
[2] = biological target: CD3 on human pan T cells (human) (UniProt P07766); test: flow cytometry competition on human pan T cells; competitor tracer AlexaFluor488 SP34-2 at 16.6 nM

CD3 on human pan T cells (human), sequence (P07766 23-207 limits assumed): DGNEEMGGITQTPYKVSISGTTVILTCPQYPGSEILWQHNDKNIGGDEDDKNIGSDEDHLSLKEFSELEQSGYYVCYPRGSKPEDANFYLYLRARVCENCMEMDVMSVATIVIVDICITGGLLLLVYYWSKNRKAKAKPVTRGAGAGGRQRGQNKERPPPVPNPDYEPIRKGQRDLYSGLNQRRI

B1: CD3B376 monovalent construct (bispecific antibody, part only; not given: second arm, constant regions, V domains shown, not shown: another chain or arm of the molecule; a dimerising Fc or GST)
VH: QVQLQQSGPRLVRPSQTLSLTCAISGDSVFNNNAAWSWIRQSPSRGLEWLGRTYYRSKWLYDYAVSVKSRITVNPDTSRNQFTLQLNSVTPEDTALYYCARGYSSSFDYWGQGTLVTVSS
VL: QSALTQPASVSGSPGQSITISCTGTSSNIGTYKFVSWYQQHPDKAPKVLLYEVSKRPSGVSSRFSGSKSGNTASLTISGLQAEDQADYHCVSYAGSGTLLFGGGTKLTVL
Kd [1]: 103 nM
IC50 [2]: 409 nM

B2: CD3B450 monovalent construct (bispecific antibody, part only; not given: second arm, constant regions, V domains shown, not shown: another chain or arm of the molecule; a dimerising Fc or GST)
VH: QVQLQQSGPGLVKPSQTLSLTCAISGDSVFNNNAAWSWIRQSPSRGLEWLGRTYYRSKWLYDYAVSVKSRITINPDTSKNQFSLQLNSVTPEDTAVYYCARGYSSSFDYWGQGTLVTVSS
VL: QSALTQPASVSGSPGQSITISCTGTSSNIGTYKFVSWYQQHPGKAPKVMIYEVSKRPSGVSNRFSGSKSGNTASLTISGLQAEDEADYYCVSYAGSGTLLFGGGTKLTVL
Kd [1]: 254 nM
IC50 [2]: 1010 nM
